Results as given in patent US20250171562A1 (ALK ABELL, published 2025).
Changes are numbered by the printed parent chain. Names and notes keep the numbering of the source.

B1: NIgG4A1A1(G4S)1 (Fc fusion)
chain 1: EVQLLESGGGLVQPGGSLRLSCAASGFTFGNYDMAWVRQAPGKRPEWVSSIDTGGDITHYADSVKGRFTISRDNAKNTLYLQMNSLRPEDTAVYWCATDEEYALGPNEFDYYGQGTLVTVSSGGGGSGPPCPPCPAPEFLGGPSVFLFPPKPKDTLMISRTPEVTCVVVDVSQEDPEVQFNWYVDGVEVHNAKTKPREEQFNSTYRVVSVLTVLHQDWLNGKEYKCKVSNKGLPSSIEKTISKAKGQPREPQVYTLPPCQEEMTKNQVSLWCLVKGFYPSDIAVEWESNGQPENNYKTTPPVLDSDGSFFLYSRLTVDKSRWQEGNVFSCSVMHEALHNHYTQKSLSLSLGK
chain 2: B1 chain 1 with Y254C, C259S, W271S, L273A, Y312V
B2: NIgG4A1A1(G4S)2 (Fc fusion)
chain 1: EVQLLESGGGLVQPGGSLRLSCAASGFTFGNYDMAWVRQAPGKRPEWVSSIDTGGDITHYADSVKGRFTISRDNAKNTLYLQMNSLRPEDTAVYWCATDEEYALGPNEFDYYGQGTLVTVSSGGGGSGGGGSGPPCPPCPAPEFLGGPSVFLFPPKPKDTLMISRTPEVTCVVVDVSQEDPEVQFNWYVDGVEVHNAKTKPREEQFNSTYRVVSVLTVLHQDWLNGKEYKCKVSNKGLPSSIEKTISKAKGQPREPQVYTLPPCQEEMTKNQVSLWCLVKGFYPSDIAVEWESNGQPENNYKTTPPVLDSDGSFFLYSRLTVDKSRWQEGNVFSCSVMHEALHNHYTQKSLSLSLGK
chain 2: B2 chain 1 with Y259C, C264S, W276S, L278A, Y317V
B3: NIgG4A1A1(G4S)3 (Fc fusion)
chain 1: EVQLLESGGGLVQPGGSLRLSCAASGFTFGNYDMAWVRQAPGKRPEWVSSIDTGGDITHYADSVKGRFTISRDNAKNTLYLQMNSLRPEDTAVYWCATDEEYALGPNEFDYYGQGTLVTVSSGGGGSGGGGSGGGGSGPPCPPCPAPEFLGGPSVFLFPPKPKDTLMISRTPEVTCVVVDVSQEDPEVQFNWYVDGVEVHNAKTKPREEQFNSTYRVVSVLTVLHQDWLNGKEYKCKVSNKGLPSSIEKTISKAKGQPREPQVYTLPPCQEEMTKNQVSLWCLVKGFYPSDIAVEWESNGQPENNYKTTPPVLDSDGSFFLYSRLTVDKSRWQEGNVFSCSVMHEALHNHYTQKSLSLSLGK
chain 2: B3 chain 1 with Y264C, C269S, W281S, L283A, Y322V
B4: CIgG4A1A1(RS) (Fc fusion)
chain 1: GPPCPPCPAPEFLGGPSVFLFPPKPKDTLMISRTPEVTCVVVDVSQEDPEVQFNWYVDGVEVHNAKTKPREEQFNSTYRVVSVLTVLHQDWLNGKEYKCKVSNKGLPSSIEKTISKAKGQPREPQVYTLPPCQEEMTKNQVSLWCLVKGFYPSDIAVEWESNGQPENNYKTTPPVLDSDGSFFLYSRLTVDKSRWQEGNVFSCSVMHEALHNHYTQKSLSLSLGKRSEVQLLESGGGLVQPGGSLRLSCAASGFTFGNYDMAWVRQAPGKRPEWVSSIDTGGDITHYADSVKGRFTISRDNAKNTLYLQMNSLRPEDTAVYWCATDEEYALGPNEFDYYGQGTLVTVSS
chain 2: B4 chain 1 with Y127C, C132S, W144S, L146A, Y185V
B5: CIgE4A1A1(GS)1 (Fc fusion)
chain 1: GPPCPPCPAPEFLGGPSVFLFPPKPKDTLMISRTPEVTCVVVDVSQEDPEVQFNWYVDGVEVHNAKTKPREEQFNSTYRVVSVLTVLHQDWLNGKEYKCKVSNKGLPSSIEKTISKAKGQPREPQVYTLPPCQEEMTKNQVSLWCLVKGFYPSDIAVEWESNGQPENNYKTTPPVLDSDGSFFLYSRLTVDKSRWQEGNVFSCSVMHEALHNHYTQKSLSLSLGKGGGGSEVQLLESGGGLVQPGGSLRLSCAASGFTFGNYDMAWVRQAPGKRPEWVSSIDTGGDITHYADSVKGRFTISRDNAKNTLYLQMNSLRPEDTAVYWCATDEEYALGPNEFDYYGQGTLVTVSS
chain 2: B5 chain 1 with Y127C, C132S, W144S, L146A, Y185V
notes: label printed with IgE4/(GS); also called CIgG4A1A1(G4S)1
B6: CIgE4A1A1(GS)2 (Fc fusion)
chain 1: GPPCPPCPAPEFLGGPSVFLFPPKPKDTLMISRTPEVTCVVVDVSQEDPEVQFNWYVDGVEVHNAKTKPREEQFNSTYRVVSVLTVLHQDWLNGKEYKCKVSNKGLPSSIEKTISKAKGQPREPQVYTLPPCQEEMTKNQVSLWCLVKGFYPSDIAVEWESNGQPENNYKTTPPVLDSDGSFFLYSRLTVDKSRWQEGNVFSCSVMHEALHNHYTQKSLSLSLGKGGGGSGGGGSEVQLLESGGGLVQPGGSLRLSCAASGFTFGNYDMAWVRQAPGKRPEWVSSIDTGGDITHYADSVKGRFTISRDNAKNTLYLQMNSLRPEDTAVYWCATDEEYALGPNEFDYYGQGTLVTVSS
chain 2: B6 chain 1 with Y127C, C132S, W144S, L146A, Y185V
notes: also called CIgG4A1A1(G4S)2
B7: CIgE4A1A1(GS3) (Fc fusion)
chain 1: GPPCPPCPAPEFLGGPSVFLFPPKPKDTLMISRTPEVTCVVVDVSQEDPEVQFNWYVDGVEVHNAKTKPREEQFNSTYRVVSVLTVLHQDWLNGKEYKCKVSNKGLPSSIEKTISKAKGQPREPQVYTLPPCQEEMTKNQVSLWCLVKGFYPSDIAVEWESNGQPENNYKTTPPVLDSDGSFFLYSRLTVDKSRWQEGNVFSCSVMHEALHNHYTQKSLSLSLGKGGGGSGGGGSGGGGSEVQLLESGGGLVQPGGSLRLSCAASGFTFGNYDMAWVRQAPGKRPEWVSSIDTGGDITHYADSVKGRFTISRDNAKNTLYLQMNSLRPEDTAVYWCATDEEYALGPNEFDYYGQGTLVTVSS
chain 2: B7 chain 1 with Y127C, C132S, W144S, L146A, Y185V
notes: also called CIgG4A1A1(G4S)3

Target: T1, recombinant human IgE (human, UniProt P01854-1 1-428)
T1 construct: made in-house (ALK); preloaded on immobilised FcεRIα in the displacement ELISA
T1 sequence (P01854 other isoform, or with tags, fused parts or gaps): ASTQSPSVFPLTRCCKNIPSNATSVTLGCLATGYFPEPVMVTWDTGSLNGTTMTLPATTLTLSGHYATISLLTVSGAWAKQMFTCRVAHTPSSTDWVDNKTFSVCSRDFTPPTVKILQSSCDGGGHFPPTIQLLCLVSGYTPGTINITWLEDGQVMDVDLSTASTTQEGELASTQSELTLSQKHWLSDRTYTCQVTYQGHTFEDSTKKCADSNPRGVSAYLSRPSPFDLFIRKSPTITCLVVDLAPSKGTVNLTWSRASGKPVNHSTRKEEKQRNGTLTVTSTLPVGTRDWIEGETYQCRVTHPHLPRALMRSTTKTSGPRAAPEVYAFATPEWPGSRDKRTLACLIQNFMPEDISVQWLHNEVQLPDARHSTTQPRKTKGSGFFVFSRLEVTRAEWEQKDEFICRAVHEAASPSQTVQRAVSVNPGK
Experiment: IgE-FcεRIα displacement ELISA
Description: The displacement effect was tested using IgE-FcεRIα displacement ELISA assay. Maxisorp® microtiter plates (Thermo Scientific Nunc, Roskilde, Denmark) were coated with 100 μl streptavidin, 5 μg/ml (Thermo Scientific, Waltham, MA) for 18 h at 4° C. followed by wash with 300 μl washing buffer (PBS containing 0.05% Tween 20) using an AquaMax® 2000 plate washer (Molecular Devices, San Jose, CA). Remaining binding sites were blocked with 250 μl blocking buffer (PBS containing 2% BSA) for 2 h and washed with 300 μl washing buffer. Subsequently, the bound streptavidin was loaded with 100 μl (0.1 μg/ml) recombinant human FcεRIα (site specific biotinylated via avi-tag, made in-house, ALK, Hørsholm, Denmark) for 1 h and plates washed twice with 300 μl washing buffer. The bound receptor was then loaded with 100 μl recombinant human IgE (made in-house, ALK, Hørsholm, Denmark), 13 ng/ml (pre-titrated to reach an OD₄₅₀ signal in the range of 1.5-2.5 in the absence of displacement components) for 1h followed by three washes of 300 μl washing buffer.
displacement step: 100 μl sdAbs diluted in concentration series (pM-μM range) or blocking buffer only as a non-displacement negative control, were added to the ELISA wells and incubated for 1 h. Any IgE, displaced from the receptor by a sdAb was washed away by three washes of 300 μl washing buffer.
The ability of the various sdAbs to displace IgE from the receptor (FcεRIα) was evaluated by use of the ELISA based IgE-FcεRIα displacement assay. The percent displacement effect was calculated as the relative reduction in signal compared to the control with no sdAb added. The EC₅₀ values and the maximal effects were determined (table 15).

Row | Binder | EC50 | Max effect
1 | B1 | 260 nM | 
2 | B2 | 230 nM | 
3 | B3 | 310 nM | 
4 | B4 |  | < 20%
5 | B5 |  | ~40%
6 | B6 | 145 nM | ~70%
7 | B7 | 36 nM | ~85%
